# From publication PMC8751750, “Effect of using different co-ligands during ^99mTc-labeling of J18 peptide on SK-MES-1 cell binding and tumor targeting” (Iranian Journal of Basic Medical Sciences, 2021)
# Peptide text beside a SMILES is read from it.
# Test: Biodistribution in normal mice
# Assay type: in vivo
# Details: i.v. 1 μg in 100 μl (18.5 MBq), mean±SD, n=4; for Intestine uptake (with contents): normal female NMRI mice
# Method: All animal investigations were approved by Mazandaran University of Medical Sciences Research and Ethical Committee in Sari, Iran. Twelve normal female NMRI mice (20–30 g) were randomly divided into three groups of four. 1 μg of (^99mTc) Tc –HYNIC–J18 peptide in 100 μl of buffer (18.5 MBq) was injected into the tail vein. All animals were sacrificed one, four, and twenty-four hours following radiolabeled peptide injection. Mice were euthanized with an appropriate dose of ketamine/xylazine (Sigma, USA) diluted with sterile water (1:3 v/v). Following deep anesthesia, blood was extracted by heart puncture with a 1-mL syringe washed with diluted heparin. Blood, liver, spleen, salivary gland, stomach, kidney, muscle, and bone samples were dissected and weighed, and radioactivity was measured. Except for the intestines, which were computed as a percentage of the injected dose per gram tissue (percent ID/g), the tissue uptake data was calculated as a percentage of the administered dose per total sample.
smiles,measurement,setting,value
"CC(C)C[C@H](NC(=O)[C@H](CO)NC(=O)[C@H](CCCNC(=N)N)NC(=O)[C@H](CO)NC(=O)[C@H](CO)NC(=O)[C@H](CO)NC(=O)c1ccc(NN)nc1)C(=O)N[C@@H](Cc1c[nH]c2ccccc12)C(=O)N[C@@H](CO)C(=O)N[C@@H](CC(=O)O)C(=O)N[C@@H](Cc1ccccc1)C(=O)N[C@@H](Cc1ccc(O)cc1)C(=O)N[C@@H](C)C(=O)N[C@@H](CO)C(=O)N[C@@H](C)C(=O)N[C@@H](CO)C(=O)N[C@@H](CCCNC(=N)N)C(=O)NCC(=O)N1CCC[C@H]1C(=O)O [Peptide 1, (^99mTc)Tc-HYNIC-(Ser)3-J18 with tricine, metal not drawn] (HELM PEPTIDE1{[NNc1ccc(C(=O)[*:2])cn1].S.S.S.R.S.L.W.S.D.F.Y.A.S.A.S.R.G.P}$$$$V2.0; C-terminus assumed)",Intestine uptake (with contents),4 hr,5.85±2.14 percentage of injected dose per whole sample
same,Intestine uptake (with contents),24 hr,1.11±0.38 percentage of injected dose per whole sample
same,tissue uptake at 4 h,"female, NMRI, mouse, spleen, iv, 1 ug, total radioactivity, 4 hr",2.24 ± 1.81 %ID/g
